Consider 1 protein from paper PMC3199332.

Substrate in the data set: CC(C)=CCNc1ncnc2nc[nH]c12
The data set is described as follows: UV absorbance steady-state kinetics. Type of data set: biochemical, Paraglaciecola sp. T6c. The note with it: hydrolytic deamination; compound 1 identified by kcat/Km 1.2 × 10^7.

B1: Patl2390 (Paraglaciecola sp. T6c) (protein)
chain: MQTQPLDIQQFISDMPKAELHVHLEGTLEPELSFALAVKNRIPLEFDTPEQLIAAYDFHDLPSFLKIYYAGMNVLIKEEDFYQLTWDYLTKAASENIVYAELFFDPQAHTSRGVSFETIITGIHKAQLDAEQKLGIRSQLIMCFLRELSAESAMEHLKLAMPYLPWLVGVGLDSNERDNPPAKFAEVFEYAKALDLKLTMHCDVNQHNTLVHIKQCLDDIQVDRIDHGVNALQDPALLEKIKHKQLGLTVCPISNRFVVQSLTSNEVRQMLEHELLVTINSDDPAYFRAYLNENFIELQKEGQFSAQEMITLVENAFKVSWLKDTEISQYLYQVSQYVKQAEYQAA
As to B1, the kcat came out at 7.3 ± 0.1 s⁻¹ and the kcat/Km is 1.2e+07 M⁻¹ s⁻¹.
